Target: T1, Sulfolobus solfataricus PolB1, unlabelled (Sulfolobus solfataricus, UniProt P26811 1-882)
T1 sequence (looked up): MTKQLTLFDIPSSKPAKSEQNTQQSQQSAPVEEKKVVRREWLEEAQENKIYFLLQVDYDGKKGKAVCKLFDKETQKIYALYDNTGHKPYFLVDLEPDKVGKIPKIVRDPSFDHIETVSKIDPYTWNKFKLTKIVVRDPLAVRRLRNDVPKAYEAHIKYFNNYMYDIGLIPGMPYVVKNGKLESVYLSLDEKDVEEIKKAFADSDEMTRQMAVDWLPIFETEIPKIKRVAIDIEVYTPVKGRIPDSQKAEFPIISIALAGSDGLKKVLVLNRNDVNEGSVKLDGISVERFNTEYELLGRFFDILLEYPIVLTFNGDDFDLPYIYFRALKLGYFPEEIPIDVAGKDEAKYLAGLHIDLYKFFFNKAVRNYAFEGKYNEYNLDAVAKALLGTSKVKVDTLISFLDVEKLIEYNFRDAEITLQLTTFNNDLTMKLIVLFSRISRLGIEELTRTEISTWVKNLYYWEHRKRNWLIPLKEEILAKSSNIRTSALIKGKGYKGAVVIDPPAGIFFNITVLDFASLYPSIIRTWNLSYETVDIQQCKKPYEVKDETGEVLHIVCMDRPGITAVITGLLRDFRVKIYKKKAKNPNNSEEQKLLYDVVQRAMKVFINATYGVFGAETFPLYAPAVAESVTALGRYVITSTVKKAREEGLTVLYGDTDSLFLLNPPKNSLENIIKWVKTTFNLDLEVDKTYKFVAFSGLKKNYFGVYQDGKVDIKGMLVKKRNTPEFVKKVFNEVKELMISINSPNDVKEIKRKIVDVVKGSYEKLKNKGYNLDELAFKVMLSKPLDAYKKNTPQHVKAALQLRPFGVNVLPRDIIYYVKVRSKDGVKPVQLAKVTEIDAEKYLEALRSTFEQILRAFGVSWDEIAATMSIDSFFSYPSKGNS
Test: SEC

B1: Sulfolobus solfataricus Dpo4 (PolY), wild type, unlabelled (enzyme)
chain: MIVLFVDFDYFYAQVEEVLNPSLKGKPVVVCVFSGRFEDSGAVATANYEARKFGVKAGIPIVEAKKILPNAVYLPMRKEVYQQVSSRIMNLLREYSEKIEIASIDEAYLDISDKVRDYREAYNLGLEIKNKILEKEKITVTVGISKNKVFAKIAADMAKPNGIKVIDDEEVKRLIRELDIADVPGIGNITAEKLKKLGINKLVDTLSIEFDKLKGMIGEAKAKYLISLARDEYNEPIRTRVRKSIGRIVTMKRNSRNLEEIKPYLFRAIEESYYKLDKRIPKAIHVVAVTEDLDIVSRGRTFPHGISKETAYSESVKLLQKILEEDERKIRRIGVRFSKFIEAIGLDKFFDT
  binding result: binds

Source: PMC5737361 (Nucleic Acids Research, 2017)
